These results are taken from US20060123518A1, “Methods for culturing cereal endosperm” (Pioneer Hi-Bred International, Inc., priority 2004, published 2006).

This experiment deals with aleurone cell development. Nature of the experiment: Chemical genetics with in vitro cultured endosperm expressing Ltp2-driven ZsYellow in aleurone cells. The experiment is classed as cell-based, maize. To be noted: in vitro endosperm cultures in liquid proliferation medium, 96 well plates; predicted result. As for the experimental part:
In vitro cultured endosperm produced by the methods of the present invention and that express the ZsYellow fluorescent protein in aleurone cells under the control of the Ltp2 promoter are plated in 96 well microtiter plates with one endosperm added per well in liquid proliferation medium. To each well, a candidate chemical to be evaluated is added. The effect of the chemical on aleurone cell development is evaluated, for example, as the loss of aleurone cell identity as detected as lack of yellow fluorescence, either on the whole surface of the in vitro cultured endosperm or in patches on the surface. For example, a chemical genetics approach can be used to assess the function of the Dek1 gene product. The defective kernel 1 (dek1) gene is required for aleurone cell development in the endosperm of maize grains and this gene encodes a membrane protein of the calpain gene superfamily (Lid et al. (2002) Proc. Natl. Acad. Sci. USA. 99(8):5460-5465). Using mutant sector analysis, it has been shown that, if an aleurone cell looses the Dek1 gene function, the cell loses its aleurone cell identity and converts to a starchy endosperm cell fate (Becraft et al. (2000) Development 127:4039-4048). n this example, in vitro endosperm cultures are exposed to the calpain inhibitor calpastatin by the method described above.

B1: calpastatin (protein, UniProt P20810 1-708, looked up)
Calpastatin: MNPTETKAIPVSQQMEGPHLPNKKKHKKQAVKTEPEKKSQSTKLSVVHEKKSQEGKPKEHTEPKSLPKQASDTGSNDAHNKKAVSRSAEQQPSEKSTEPKTKPQDMISAGGESVAGITAISGKPGDKKKEKKSLTPAVPVESKPDKPSGKSGMDAALDDLIDTLGGPEETEEENTTYTGPEVSDPMSSTYIEELGKREVTIPPKYRELLAKKEGITGPPADSSKPIGPDDAIDALSSDFTCGSPTAAGKKTEKEESTEVLKAQSAGTVRSAAPPQEKKRKVEKDTMSDQALEALSASLGTRQAEPELDLRSIKEVDEAKAKEEKLEKCGEDDETIPSEYRLKPATDKDGKPLLPEPEEKPKPRSESELIDELSEDFDRSECKEKPSKPTEKTEESKAAAPAPVSEAVCRTSMCSIQSAPPEPATLKGTVPDDAVEALADSLGKKEADPEDGKPVMDKVKEKAKEEDREKLGEKEETIPPDYRLEEVKDKDGKPLLPKESKEQLPPMSEDFLLDALSEDFSGPQNASSLKFEDAKLAAAISEVVSQTPASTTQAGAPPRDTSQSDKDLDDALDKLSDSLGQRQPDPDENKPMEDKVKEKAKAEHRDKLGERDDTIPPEYRHLLDDNGQDKPVKPPTKKSEDSKKPADDQDPIDALSGDLDSCPSTTETSQNTAKDKCKKAASSSKAPKNGGKAKDSAKTTEETSKPKDD
Regarding B1, the “effect on aleurone cell identity (yellow fluorescence on endosperm surface)” value is “lack of fluorescence in spot on the surface”.
